Laboratory results published in PMC12350170, “Structural basis for the synergistic assembly of the snRNA export complex” (Nature Structural & Molecular Biology, 2025).

B1: MBP-PHAX103–196 (wild type) [human] / Human nuclear cap-binding complex (CBC): CBP80ΔNLS with CBP20 [human] (parent)
chain 1: SQKPPVAGGKKINNIWGAVLQEQNQDAVATELGILGMEGTIDRSRQSETYNYLLAKKLRKESQEHTKDLDKELDEYMHGGKKMGSKEEENGQGH
chain 2: KTSDANETEDHLESLICKVGEKSACSLESNLEGLAGVLEADLPNYKSKILRLLCTVARLLPEKLTIYTTLVGLLNARNYNFGGEFVEAMIRQLKESLKANNYNEAVYLVRFLSDLVNCHVIAAPSMVAMFENFVSVTQEEDVPQVRRDWYVYAFLSSLPWVGKELYEKKDAEMDRIFANTESYLKRRQKTHVPMLQVWTADKPHPQEEYLDCLWAQIQKLKKDRWQERHILRPYLAFDSILCEALQHNLPPFTPPPHTEDSVYPMPRVIFRMFDYTDDPEGPVMPGSHSVERFVIEENLHCIIKSHWKERKTCAAQLVSYPGKNKIPLNYHIVEVIFAELFQLPAPPHIDVMYTTLLIELCKLQPGSLPQVLAQATEMLYMRLDTMNTTCVDRFINWFSHHLSNFQFRWSWEDWSDCLSQDPESPKPKFVREVLEKCMRLSYHQRILDIVPPTFSALCPANPTCIYKYGDESSNSLPGHSVALCLAVAFKSKATNDEIFSILKDVPNPNQDDDDDEGFSFNPLKIEVFVQTLLHLAAKSFSHSFSALAKFHEVFKTLAESDEGKLHVLRVMFEVWRNHPQMIAVLVDKMIRTQIVDCAAVANWIFSSELSRDFTRLFVWEILHSTIRKMNKHVLKIQKELEEAKEKLARQHKRRSDDDDRSSDRKDGVLEEQIERLQEKVESAQSEQKNLFLVIFQRFIMILTEHLVRCETDGTSVLTPWYKNCIERLQQIFLQHHQIIQQYMVTLENLLFTAELDPHILAVFQQFCALQA
chain 3: MSGGLLKALRSDSYVELSQYRDQHFRGDNEEQEKLLKKSCTLYVGNLSFYTTEEQIYELFSKSGDIKKIIMGLDKMKKTACGFCFVEYYSRADAENAMRYINGTRLDDRIIRTDWDAGFKEGRQYGRGRSGGQVRDEYRQDYDAGRGGYGKLAQNQ

Variants of: B1
Assay: ITC
Settings: CBC pre-bound to the cap analog m7GpppG

Variant | Kd [µM]
chain 1 R45E Y50E Y52E | 1.97

Same assay, conditions: CBC pre-bound to the cap analog m7GpppG (row 'CBC-m7GpppG + PHAX103–196 (R147E, Y152E, Y154E)')

Variant | Kd [µM]
chain 1 R45E Y50E Y52E | 1.97
